For the experiment, the target named is T1, SARS-CoV-2 receptor binding domain, omicron subvariant BA5 (RBDBA5) (SARS-CoV-2, Omicron BA.5, strain).
T1 construct: also called Omicron BA5 RBD
The experiment is described as follows: SPR; Biacore T200, […]; 25°C, HBS-EP+ ([…], pH 7.4); 1:1 binding model; triplicate. To be noted: both partners purified. For orientation: In SPR one partner is held on a chip, and binding of the other changes the refractive index at the surface.

Data on one molecule can be found in article PMC10235760 (Frontiers in Immunology, 2023).

B1: antibody 10-40 with triple mutations (S32H heavy, R100bI heavy, Q53F light) (antibody, V domains shown)
VH: QLQLQESGPGLVKPSETLSLTCTVSGGSISSHNFYWGWIRQPPGKGLEWIASITYSGRTFYNPSLKSRVAISVDTSKNQFSLKLSSVTAADTAVYYCARTFPSYYDISGYHYLNYGMDVWGQGTTVTVSS
VL: NFMLTQPHSMSESPGKTVTISCTRSSGSIASNYVQWYQQRPGSSPTTVIYEDNFRPSGVPDRFSGSIDSSSNSASLTISGLKTEDEADYYCQSYDSSSWVFGGGTKLTVL
notes: also called combination of S32HH, R100bIH, and Q53FL
Take B1: the “fold improvement of binding affinity over antibody 10-40” value was above 5000 fold.
